The values below come from paper PMC6780499, “Characterization, Recombinant Production and Structure-Function Analysis of NvCI, A Picomolar Metallocarboxypeptidase Inhibitor from the Marine Snail Nerita versicolor” (Marine Drugs, 2019).

Where two headings read alike, the source gives them in different places. No end group written: not given here.

Assay [1] concerns the target T1, bCPA1 (Bos taurus, UniProt P00730).
T1 sequence (P00730 111-419): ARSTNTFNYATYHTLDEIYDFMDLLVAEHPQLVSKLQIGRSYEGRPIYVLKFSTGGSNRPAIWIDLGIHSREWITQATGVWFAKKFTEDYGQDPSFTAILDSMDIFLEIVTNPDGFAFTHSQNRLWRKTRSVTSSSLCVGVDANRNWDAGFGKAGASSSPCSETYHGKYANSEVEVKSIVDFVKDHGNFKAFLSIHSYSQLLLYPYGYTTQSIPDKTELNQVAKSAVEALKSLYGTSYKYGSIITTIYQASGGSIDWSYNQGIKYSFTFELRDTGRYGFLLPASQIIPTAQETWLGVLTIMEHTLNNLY
As to the kind of experiment: Ki determination, tight-binding inhibition of metallocarboxypeptidase. It is filed as biochemical, bovine. Conditions: natural isoforms; apparent Ki, without correction by competing assays; read-out: derived Ki towards bCPA (apparent Ki values). On the procedure:
Inhibitory activities against CPA- and CPB-type forms (bovine and human variants of CPA1, CPA2, CPA4, CPB1, and TAFI) were assayed for all extracts, subject to the experimental conditions that enzyme (E), substrate (S) and inhibitor (I) concentrations as well as the [I]/[E] ratio and preincubation time followed the requirements for tight-binding inhibitor assays. Similar approaches were followed to measure the activities of proteases of different catalytic types, like pepsin, papain, trypsin and subtilisin [45, 46, 47, 48]. All assays were performed in triplicate at 25 °C in a multiplexed manner. For 96-well assays an iEMS spectrophotometer reader/dispenser FM (Labsystems, Finland) was used with a final reaction volume of 250 μL. For cuvette assays, a Cary 400 Bio spectrophotometer (Varian Inc., Palo Alto, CA, USA) spectrophotometer was used with a final reaction volume of 1 ml. The reactions were followed at 5 s intervals for 5 min and recorded as initial velocities. In the protease inhibition assays, mixtures of activity buffer, biological sample and enzyme were preincubated at 25 °C for 10min, before substrate addition. The assay conditions were as follows: for CPA-like enzymes, 7.0nM CPA, 0.1mM AAFP substrate in 20mM Tris-HCl pH 7.5, 500mMNaCl, 1% v/v dimethyl sulfoxide (DMSO), 0.05% w/v BRIJ-35 was used. For CPB-like enzymes, CPB 3.0nM CPB, 0.1mM AAFA substrate and activity buffer of 20 mM Tris-HCl pH [50].
The Ki values of natural and recombinant NvCI against bCPA1, hCPA1, hCPA2, rat CPA3, hCPA4, hCPB1, bTAFI, hTAFI, hCPD and hCPZ were determined by measuring the enzymatic residual activity (Vi/V0 = a) at different inhibitor concentrations and using a fixed enzyme and substrate concentrations as described above, where vi and v0 are the fraction of enzymatic activity in the presence and absence of inhibitor, respectively, in terms of initial velocities. The determination of Ki values was carried out on equilibrium conditions ([E0]/Ki ≤ 10), using a previously determined preincubation time of 15 min, required to establish enzyme-inhibitor equilibrium. Working temperature was 37 °C. The best estimates of Ki values were obtained by fitting the experimental data to the equation for tight-binding inhibitors by non-linear regression using the GraphPad Prisma 5 software (GraphPad Software, Inc., San Diego, CA, USA) at p < 0.05. The real Ki values against each of these A/B-type MCPs were calculated according to the equation described by Morrison and Copeland [19, 20].

The subject of the next assay is HepG2 cells. As to the kind of experiment: Cellular uptake by confocal laser scanning microscopy. Format: cell-based, human. Conditions: HepG2, 20 µg/ml, 4 h at 37 °C, CLSM, LysoTracker and Hoechst staining. On the procedure: Recombinant NvCI was fluorescently labelled with an Alexa Fluor 488 Protein Labeling Kit (Molecular Probes, Eugene, OR, USA). HepG2 cells were seeded in a 35 mm glass-bottom culture dish (MatTek Corporation, Ashland, MA, USA) at a density of 4 × 10^5 cells/well and incubated for 24 h. The cells were incubated with 20 µg/ml Alexa 488-NvCI for 4 h at 37 °C. Prior to imaging, lysosomes and nuclei were stained with Lysotracker Red and Hoechst (Invitrogen, Carlsbard, CA, USA), respectively, for 90 or 10 min.

The next assay has as its target T2, pCPB (Sus scrofa, UniProt P09955).
T2 sequence (P09955 111-416): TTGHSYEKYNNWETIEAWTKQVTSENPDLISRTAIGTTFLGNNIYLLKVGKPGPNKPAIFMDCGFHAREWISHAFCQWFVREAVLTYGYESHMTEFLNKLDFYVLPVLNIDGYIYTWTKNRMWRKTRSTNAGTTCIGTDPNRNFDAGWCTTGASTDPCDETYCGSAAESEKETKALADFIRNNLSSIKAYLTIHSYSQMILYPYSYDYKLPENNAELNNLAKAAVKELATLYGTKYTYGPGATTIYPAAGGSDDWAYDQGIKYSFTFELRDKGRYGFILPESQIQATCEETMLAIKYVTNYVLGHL
Particulars: ref Arolas et al., 2004 [21]; cited from earlier work. The source says: Table 2 Ki values of various proteinaceous metallocarboxypeptidases (MCPs) inhibitors. | column: Ki (nM) / rPCI (a); Ki (nM) / rTCI (b); Ki (nM) / rLCI (c)

In the next assay the target is T3, hCPB (Homo sapiens, UniProt P15086).
T3 sequence (P15086 111-417): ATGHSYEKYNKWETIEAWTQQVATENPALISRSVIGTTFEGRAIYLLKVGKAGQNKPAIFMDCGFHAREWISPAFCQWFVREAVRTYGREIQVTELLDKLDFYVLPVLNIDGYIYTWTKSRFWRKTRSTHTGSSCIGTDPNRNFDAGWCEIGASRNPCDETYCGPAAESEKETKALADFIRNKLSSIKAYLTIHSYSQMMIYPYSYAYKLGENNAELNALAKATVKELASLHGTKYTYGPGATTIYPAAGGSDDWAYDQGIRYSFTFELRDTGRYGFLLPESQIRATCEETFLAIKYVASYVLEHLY
Conditions: cited from earlier work. The text has this:
Table 2 Ki values of various proteinaceous metallocarboxypeptidases (MCPs) inhibitors. | column: Ki (nM) / rPCI (a); Ki (nM) / rTCI (b); Ki (nM) / rLCI (c); Ki (nM) / rhuman latexin (e)

For a further assay, the target named is T4, hCPA2 (Homo sapiens, UniProt P48052).
T4 sequence (P48052 115-419): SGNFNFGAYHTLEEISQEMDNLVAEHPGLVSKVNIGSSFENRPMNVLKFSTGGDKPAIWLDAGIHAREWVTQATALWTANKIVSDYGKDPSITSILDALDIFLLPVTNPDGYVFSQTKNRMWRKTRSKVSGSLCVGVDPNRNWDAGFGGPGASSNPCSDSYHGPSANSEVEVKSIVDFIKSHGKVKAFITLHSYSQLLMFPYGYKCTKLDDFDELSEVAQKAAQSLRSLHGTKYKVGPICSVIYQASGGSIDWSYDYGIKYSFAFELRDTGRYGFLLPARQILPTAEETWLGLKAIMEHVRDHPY
Conditions: cited from earlier work. The text has this: (§1) Table 2 Ki values of various proteinaceous metallocarboxypeptidases (MCPs) inhibitors. | column: Ki (nM) / rPCI (a); Ki (nM) / rTCI (b); Ki (nM) / rLCI (c); Ki (nM) / rACI (d); Ki (nM) / rhuman latexin (e)

The target of assay [2] is T1, bCPA1. Conditions: cited from earlier work.
Source text: as §1

A further assay concerns the target T5, hCPA4 (Homo sapiens, UniProt Q9UI42).
T5 sequence (Q9UI42 114-421): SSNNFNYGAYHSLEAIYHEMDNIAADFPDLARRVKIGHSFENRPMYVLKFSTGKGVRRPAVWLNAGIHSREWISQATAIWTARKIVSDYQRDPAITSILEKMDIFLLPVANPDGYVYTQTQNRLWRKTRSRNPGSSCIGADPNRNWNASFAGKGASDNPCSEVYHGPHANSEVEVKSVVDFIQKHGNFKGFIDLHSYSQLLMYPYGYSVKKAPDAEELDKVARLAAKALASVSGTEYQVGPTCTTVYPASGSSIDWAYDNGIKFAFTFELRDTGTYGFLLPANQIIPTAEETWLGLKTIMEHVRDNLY
Conditions: cited from earlier work.
Source text: as §1

For another assay, the target named is T6, hCPA1 (Homo sapiens, UniProt P15085).
T6 sequence (P15085 111-419): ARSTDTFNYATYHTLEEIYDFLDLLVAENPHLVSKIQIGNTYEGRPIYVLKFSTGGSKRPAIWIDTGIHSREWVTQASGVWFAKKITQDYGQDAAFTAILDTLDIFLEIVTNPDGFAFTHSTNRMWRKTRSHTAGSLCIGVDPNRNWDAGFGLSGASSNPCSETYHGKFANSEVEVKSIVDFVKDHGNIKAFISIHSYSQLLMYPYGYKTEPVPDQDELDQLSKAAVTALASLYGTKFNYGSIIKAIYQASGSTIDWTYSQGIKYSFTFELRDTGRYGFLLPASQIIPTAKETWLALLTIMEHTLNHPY
Conditions: cited from earlier work.
Source text: as §1

A further assay has as its target T7, hTAFI (Homo sapiens, UniProt Q96IY4).
T7 sequence (Q96IY4 115-423): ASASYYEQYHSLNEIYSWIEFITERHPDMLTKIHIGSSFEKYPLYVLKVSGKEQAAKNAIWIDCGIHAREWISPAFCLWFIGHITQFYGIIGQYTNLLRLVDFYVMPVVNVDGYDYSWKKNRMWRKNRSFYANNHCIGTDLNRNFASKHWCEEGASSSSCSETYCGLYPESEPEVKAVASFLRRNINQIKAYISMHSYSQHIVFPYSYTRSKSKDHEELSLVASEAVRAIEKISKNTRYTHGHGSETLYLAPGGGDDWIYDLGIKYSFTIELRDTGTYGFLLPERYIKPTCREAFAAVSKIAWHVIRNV
Particulars: cited from earlier work. The text has this: Table 2 Ki values of various proteinaceous metallocarboxypeptidases (MCPs) inhibitors. | column: Ki (nM) / rPCI (a); Ki (nM) / rTCI (b); Ki (nM) / rACI (d); Ki (nM) / rhuman latexin (e)

As to “NvCIc: minor natural isoform, lacks the N-terminal Phe as compared to NvCIa (HVPDDRPCINPGRCPLVPDATCTFVCKAADNDFGYECQHVWTFEGQRVGCYA; three intrachain disulphides)”, in the assay with bCPA1 [1], the Ki was determined as 0.049 ± 0.002 nM.
Turning to “NvCId: minor natural isoform, lacks the N-terminal Phe as compared to NvCIb (HVPDDRPCIKPGRCPLVPDATCTFVCKAADNDFGYECQHVWTFEGQRVGCYA; three intrachain disulphides)”, the Ki with bCPA1 [1] amounted to 0.022 ± 0.001 nM.
On to “Alexa488-labelled NvCI: recombinant NvCI fluorescently labelled with an Alexa Fluor 488 Protein Labeling Kit (FHVPDDRPCINPGRCPLVPDATCTFVCKAADNDFGYECQHVWTFEGQRVGCYA; ends and bridges not checked; also: Alexa Fluor 488 label; UniProt P86912 1-53, looked up)”, for which, in the assay on HepG2 cells, the “cellular uptake / internalization” value is reported as “internalized NvCI was distributed through the cytoplasm”.
With “NvCIb: natural isoform of NvCI with N→K substitution at the 11th residue (FHVPDDRPCIKPGRCPLVPDATCTFVCKAADNDFGYECQHVWTFEGQRVGCYA; three intrachain disulphides)”, the Ki in the assay with bCPA1 [1] stood at 0.038 ± 0.002 nM.

B1: rLCI: recombinant carboxypeptidase inhibitor from the medical leech Hirudo medicinalis (protein, UniProt P81511 16-81, looked up)
Metallocarboxypeptidase …: SHTPDESFLCYQPDQVCCFICRGAAPLPSEGECNPHPTAPWCREGAVEWVPYSTGQCRTTCIPYVE
For the molecule B1, the Ki with pCPB is 2.4 ± 0.5 nM; with hCPB (ref Arolas et al., 2004 [21]) it was 1.2 ± 0.3 nM; with hCPA2 (ref Arolas et al., 2004 [21]) it was 4.5 ± 0.6 nM; with bCPA1 [2] (ref Arolas et al., 2004 [21]) it was 1.1 ± 0.2 nM; with hCPA4 (ref Tanco et al., 2010 [22]), 7.3 ± 0.4 nM; with hCPA1 (ref Arolas et al., 2004 [21]), 1.3 ± 0.4 nM.

B2: rhuman latexin: recombinant human latexin, larger (19–22 kDa) endogenous protein inhibitor of carboxypeptidases (protein, UniProt Q9BS40 1-222, looked up)
Latexin: MEIPPTNYPASRAALVAQNYINYQQGTPHRVFEVQKVKQASMEDIPGRGHKYHLKFAVEEIIQKQVKVNCTAEVLYPSTGQETAPEVNFTFEGETGKNPDEEDNTFYQRLKSMKEPLEAQNIPDNFGNVSPEMTLVLHLAWVACGYIIWQNSTEDTWYKMVKIQTVKQVQRNDDFIELDYTILLHNIASQEIIPWQMQVLWHPQYGTKVKHNSRLPKEVQLE
For B2, the Ki in the assay with hTAFI (ref Pallarès et al., 2005 [15]) was 1.8 ± 0.3 nM; in the assay with hCPB (ref Pallarès et al., 2005 [15]) it was 1.1 ± 0.1 nM; in the assay with hCPA2 (ref Pallarès et al., 2005 [15]), 3.5 ± 0.3 nM; with bCPA1 [2] (ref Pallarès et al., 2005 [15]), 1.2 ± 0.2 nM; with hCPA4 (ref Pallarès et al., 2005 [15]), 3 ± 0.3 nM; with hCPA1 (ref Pallarès et al., 2005 [15]), 1.6 ± 0.2 nM.

B3: rACI: recombinant carboxypeptidase inhibitor from the intestinal parasite Ascaris suum (protein)
chain: VRKCLSDTDCTNGEKCVQKNKICSTIVEIQRCEKEHFTIPCKSNNDCQVWAHEKICNKGCCWDLL
modifications: intrachain disulphides
Regarding B3, the Ki with hTAFI (ref Sanglas et al., 2009 [10]) is 42 ± 1.7 nM; with hCPA2 (ref Sanglas et al., 2009 [10]) it was 2.5 ± 0.2 nM; in the assay with bCPA1 [2] (ref Sanglas et al., 2009 [10]), 2.4 ± 0.3 nM; in the assay with hCPA4 (ref Sanglas et al., 2009 [10]), 23.9 ± 3.1 nM; in the assay with hCPA1 (ref Sanglas et al., 2009 [10]), 1.6 ± 0.2 nM.
